This passage reports fold MFI against pMHC-pCC-Fc-loaded SAv-based T-Plex beads results from US20220381770A1.

Experiment [1] addresses HCMV pp65495-503/HLA-A2-Fc (Human cytomegalovirus). The experiment can be described thus: flow cytometry of pMHC-Fc-loaded α-Fc-based T-Plex beads stained with BB7.2.
Experiment [2] deals with Survivin96-104/HLA-A2-Fc-STag. The experiment is described as above.

Consider “αHLA-A2 mAb (Clone BB7.2/BioLegend) of IgG2b isotype (antibody)”, for which the fold MFI against pMHC-pCC-Fc-loaded SAv-based T-Plex beads in experiment [1] and in experiment [2] was 4 fold each time.
